Measurements from PMC8278974.
Blank lines part the entries; values can stand above or below the substance they belong to.

Assays:
Test in all cases: gel electrophoresis; eluent of Ni-charged magnetic beads (0.5 M NaCl, 20 mM HEPES, 500 mM imidazole, 0.5% Genapol X-80, pH 8.0) after heating the lysate at 90 °C for 10 min; 4–20% Mini-PROTEAN TGX Gel, 200 V for 27 min; self-assembly, octamer band
[1] = target: MspA-M (M2 MspA with methionine at site 91) (Mycobacterium smegmatis)
[2] = target: MspA-C (M2 MspA with cysteine at site 91) (Mycobacterium smegmatis)
[3] = target: MspA-D (M2 MspA with aspartic acid at site 91) (Mycobacterium smegmatis)
[4] = target: MspA-H (M2 MspA with histidine at site 91) (Mycobacterium smegmatis)
[5] = target: M2 MspA (Mycobacterium smegmatis porin A mutant M2) (Mycobacterium smegmatis) (UniProt A0QR29)

Substance: MspA-D (M2 MspA with aspartic acid at site 91) (natural protein)
- stoichiometry N [3]: 8

Substance: MspA-H (M2 MspA with histidine at site 91) (natural protein)
- stoichiometry N [4]: 8

Substance: M2 MspA (Mycobacterium smegmatis porin A mutant M2) (from UniProt A0QR29 28-211) (natural protein)
- stoichiometry N [5]: 8

Continued, values first:

- stoichiometry N [1]: 8
Substance: MspA-M (M2 MspA with methionine at site 91) (natural protein)

- stoichiometry N [2]: 8
Substance: MspA-C (M2 MspA with cysteine at site 91) (natural protein)
